Test results: paper PMC12323374

Legend:
Experiment in all cases: SEC
[1] = target: Nsp3 Ubl1 variant D80R E81R (SARS-CoV-2)
[2] = target: Nsp3 Ubl1 variant E26R E29R (SARS-CoV-2)
[3] = target: Nsp3 Ubl1 variant E49R E52R (SARS-CoV-2)
[4] = target: Nsp3 Ubl1 variant K33E K38E (SARS-CoV-2)
[5] = target: SARS-CoV-2 Nsp3 NAB domain, longer fragment, residues 1,050-1,216 (SARS-CoV-2)
[6] = target: SARS-CoV-2 Nsp3 ubiquitin-like 1 (Ubl1) domain, residues 1-111 (SARS-CoV-2)

Nsp3 Ubl1 variant D80R E81R (domain or fragment)
stoichiometry N [1]: 2

Nsp3 Ubl1 variant E26R E29R (domain or fragment)
stoichiometry N [2]: 2

Nsp3 Ubl1 variant E49R E52R (domain or fragment)
stoichiometry N [3]: 2

Nsp3 Ubl1 variant K33E K38E (domain or fragment)
stoichiometry N [4]: 2

SARS-CoV-2 Nsp3 NAB domain, longer fragment, residues 1,050-1,216 (domain or fragment)
stoichiometry N [5]: 2

SARS-CoV-2 Nsp3 ubiquitin-like 1 (Ubl1) domain, residues 1-111 (domain or fragment)
stoichiometry N [6]: 2
